These results are taken from paper PMC12799421, “Inhibition of constitutive activity of the atypical chemokine receptor 3 by the small-molecule inverse agonist VUF16840” (Molecular Pharmacology, 2025).

For assay [1], the system named is CXCL12 levels. Conditions: humans; cited from earlier work.
Assay [2] relates to CXCL12 levels. Details: method as in PMID 33595155, PMID 38819698. The conditions noted are these: mice, in vivo application; cited from earlier work.
In assay [3] the target is hCCR3 C-terminally tagged with SmBiT (chemokine receptor screen) (human) (UniProt P51677).
The target of assay [4] is CCR3 (Homo sapiens, UniProt P51677). The experiment in a line: NanoBiT β-arrestin2 recruitment to CCR3, concentration-response. Conditions: HEK293T, NanoBiT. Type of assay: cell-based. How it is done:
The pharmacological modulation of all chemokine receptors by VUF16840 was performed according to an established method.[8]^,[23]^,[39] Briefly, β-arrestin2 recruitment to chemokine receptors in response to 1 μM VUF16840 or positive control chemokines was monitored by NanoLuc complementation assay (NanoBiT, Promega). Four hours after transfection, cells were harvested, incubated for 25 minutes at 37 °C with furimazine and distributed into a white 96-well plates (1 × 10^5 cells per well). β-Arrestin2 recruitment was then detected for 20 minutes upon treatment with 1 μM VUF16840 (or increasing concentrations ligand for experiments with CC chemokine receptor [CCR3]) using the Mithras LB940 luminometer (Berthold Technologies). To evaluate the antagonist properties of VUF16840, full agonists of each receptor were added after the 20-minute incubation with VUF16840. Signal from wells treated with full agonist only was defined as 100% activity and signals from wells treated with no agonist were used to set 0% activity.
Supplemental Figure 5 – Modulation of CCR3 receptor by VUF16840. Recruitment of β-arrestin2 towards CCR3 chemokine receptor was measured using a NLuc complementation assay in HEK293T cells. The concentration-dependent activation of the CCR3 was determined for VUF16840 and the endogenous agonist CCL13. All values depict the mean ± SD of ≥ 3 experiments.
On the technique in general: Recruitment of arrestin is a read-out of receptor activation apart from second messengers.

Assay [5] has as its target T1, ACKR3 (Homo sapiens, UniProt P25106).
T1 construct: expressed in transfected cells; host or cells: HEK293T
As to the kind of experiment: BRET β-arrestin1 recruitment to ACKR3 in HEK293T cells. The class given is cell-based. The conditions noted are these: * VUF16840 as inverse agonist. As for the experimental part:
(§1) For bioluminescence resonance energy transfer (BRET) experiments, several BRET acceptor constructs were used that consist of the pcDEF3 vector with either GRK2 (NCBI: NM_174710.2), β-arrestin1 (NCBI: NM_174243.3), or β-arrestin2 (NCBI: XM_005220181.4) fused at the C-terminus with a SpeI/NotI linker to mVenus (NCBI: KP666136.1), as previously described.[34]
(§2) For 1·10^6 HEK293T cells, a transfection mix consisting of 2 μg plasmid DNA, 12 μg linear PEI in a total volume of 200 μL 150 mM NaCl was made and thoroughly vortexed. The transfection mix was incubated for 15 minutes and consequently added to a cell suspension with a final concentration of 3·10^5 cells/mL. For functional studies this cell suspension was immediately transferred to a poly-L-lysine-coated white 96-well plate, with 3·10^4 cells per well. […] For BRET-based membrane localization experiments, the 2 μg plasmid DNA consisted of ACKR3-NL (0.05 μg), mVenus-CAAX (0.25 μg), and pcDEF3 vector DNA without insert (1.7 μg).
(§3) Mean pIC50 values were determined by averaging fitted values from individual experiments. Graphs depict the pooled data of all experiments. Similarly, sigmoidal, ligand-induced concentration-dependent activation or inhibition of the proximity between ACKR3 and the protein of interest was analyzed using GraphPad Prism 8, by fitting a 3-parameter concentration-response model to the data, to determine pEC50/pIC50 values. Mean pEC50 values and pIC50 values were determined by averaging fitted values from individual experiments. Graphs depict the pooled data of all experiments, for which values are normalized, per experiment, to the fold difference compared with basal signal.
HEK293T cells were stimulated with increasing concentrations of VUF15485 or VUF16840 only (A–D), or increasing concentrations of VUF16840 in the presence of 100 nM VUF15485 (E–H). The resulting proximity between ACKR3 and β-arrestin1 (A, E), GRK2 (B, F), or Rab5a (C, G) was determined by bioluminescence resonance energy transfer. Furthermore, an interaction between clathrin A and β-arrestin2 was measured by NLuc complementation, as was determined by quantifying the relative light units (D, H). Depicted data is normalized as fold-basal and represents the mean ± SD of N experiments with triplicate measurements per experiment. N is specified in Supplemental Table 1.
In general terms: Bioluminescence resonance energy transfer reports proximity on the nanometre scale.

In assay [6] the target is T1, ACKR3. As to the kind of experiment: BRET β-arrestin2 recruitment to hACKR3 in HEK293T cells. The conditions noted are these: * VUF16840 as inverse agonist; mean ± SD (N). Type of assay: cell-based. How it is done:
as §1, §2, §3

Assay [7] concerns the target hACKR3-SmBiT (HA-tagged ACKR3 C-terminally fused to SmBiT) (human) (UniProt P25106).
In assay [8] the target is N-terminally NLuc-tagged hACKR3 (human) (UniProt P25106).
Chain of N-terminally NLuc-tagged hACKR3 (human) (P25106 whole entry): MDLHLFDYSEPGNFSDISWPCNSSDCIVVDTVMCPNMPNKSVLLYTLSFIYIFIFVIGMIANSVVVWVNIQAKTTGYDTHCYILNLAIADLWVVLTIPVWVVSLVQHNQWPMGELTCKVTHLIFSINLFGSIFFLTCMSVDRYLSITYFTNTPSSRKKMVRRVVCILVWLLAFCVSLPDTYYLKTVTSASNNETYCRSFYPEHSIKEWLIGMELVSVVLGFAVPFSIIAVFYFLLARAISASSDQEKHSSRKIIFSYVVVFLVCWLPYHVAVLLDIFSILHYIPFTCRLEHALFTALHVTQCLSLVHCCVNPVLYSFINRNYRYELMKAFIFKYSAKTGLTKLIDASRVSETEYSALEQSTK

T1 sequence (P25106 whole entry): as above
Chain of Human recombinant CXCL12 (P48061 22-93): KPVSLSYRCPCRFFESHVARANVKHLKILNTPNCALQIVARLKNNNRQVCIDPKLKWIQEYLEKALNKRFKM
Chain of CCR3 (P51677 whole entry): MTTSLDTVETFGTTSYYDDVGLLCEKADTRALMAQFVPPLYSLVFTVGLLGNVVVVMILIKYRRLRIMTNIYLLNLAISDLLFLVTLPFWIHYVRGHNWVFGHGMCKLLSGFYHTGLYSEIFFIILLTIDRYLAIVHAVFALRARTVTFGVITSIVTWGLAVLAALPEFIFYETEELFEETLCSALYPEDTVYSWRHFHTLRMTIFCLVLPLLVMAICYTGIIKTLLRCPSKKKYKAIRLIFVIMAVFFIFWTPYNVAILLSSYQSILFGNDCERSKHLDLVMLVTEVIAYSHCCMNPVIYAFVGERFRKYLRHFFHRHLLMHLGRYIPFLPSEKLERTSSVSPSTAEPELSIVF
Chain of CCR3 (P32121 whole entry partner): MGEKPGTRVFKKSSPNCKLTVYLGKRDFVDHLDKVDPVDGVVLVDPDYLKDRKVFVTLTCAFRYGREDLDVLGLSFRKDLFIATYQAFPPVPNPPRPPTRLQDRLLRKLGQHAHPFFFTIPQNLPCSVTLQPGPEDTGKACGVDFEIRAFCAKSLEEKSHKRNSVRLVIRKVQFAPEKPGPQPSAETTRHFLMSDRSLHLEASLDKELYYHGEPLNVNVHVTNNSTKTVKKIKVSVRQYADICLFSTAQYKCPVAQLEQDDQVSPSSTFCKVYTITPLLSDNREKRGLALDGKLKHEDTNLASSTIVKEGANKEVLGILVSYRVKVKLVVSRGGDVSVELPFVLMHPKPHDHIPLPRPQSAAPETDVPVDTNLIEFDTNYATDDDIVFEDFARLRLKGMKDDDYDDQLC
Chain of hACKR3-SmBiT (HA-tagged ACKR3 C-terminally fused to SmBiT) (human) (P25106 whole entry, the tested form may be a part): as the sequence (P25106 whole entry) above
Chain of hCCR3 C-terminally tagged with SmBiT (chemokine receptor screen) (human) (P51677 whole entry): as the sequence (P51677 whole entry) above
Chain of CCL13 (Q99616 17-98): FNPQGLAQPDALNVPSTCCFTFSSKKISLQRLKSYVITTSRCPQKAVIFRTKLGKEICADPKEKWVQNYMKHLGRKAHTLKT

For the compound `O=C(N[C@H]1CCN(CC2CC2)C[C@@H]1C(=O)NC1(c2ncccn2)CC1)c1cc(-c2ccc(F)cc2F)on1` [ACT1004-1239], in assay [1], the “plasma CXCL12 levels” value is recorded as “increase”. Also, the “plasma and brain CXCL12 levels” value in assay [2] is listed as “increase”.
“CCL13 (from UniProt Q99616 17-98) (ligand)” displayed a β-arrestin2 recruitment to CCR3 (NanoBiT, HEK293T), EC50 of CCL13 in assay [3] of 63 nM.
Broadly, the EC50 is the concentration at which the effect is half-maximal. On to “CCL13: endogenous ligand (agonist) of CCR3”, for which, in assay [4], the “pEC50, activation of CCR3 (β-arrestin2 recruitment)” value is listed as 7.2 ± 0.1. Further, the EC50 in assay [4] (read-out: EC50, activation of CCR3 (β-arrestin2 recruitment)) came out at 63 nM.
In the case of “CXCL11: human recombinant chemokine, endogenous agonist of ACKR3”, the “β-arrestin1 BRET pEC50” value in assay [5] is on record as 8.1 ± 0.1 (6). The “β-arrestin2 BRET pEC50” value in assay [6] is recorded as 8.2 ± 0.1 (3).
“Human recombinant CXCL12 (from UniProt P48061 22-93) (ligand)”: in assay [7], the β-arrestin2 recruitment to hACKR3 (NanoBiT, HEK293T, concentration-response after 30 minutes), EC50 of CXCL12 came out at 1.6 nM. The bystander BRET between ACKR3-NLuc (C-terminal NLuc, not the construct of m2) and plasma membrane mVenus-CAAX in HEK293T cells (receptor internalization), pIC50 of CXCL12 in assay [8] came out at 9.1 pIC50.
